Measured values taken from patent US20250327097A1, “ORGANISMS PRODUCING LESS CROTONIC ACID” (Global Bioenergies, priority 2021, published 2025).
Positions count from the first letter of the chain named. Names may count otherwise.

B1: I283T-P284D-N287P-S322T-N388M-K423C-C430N-L432F-L434W-S436N-A463G-Y469D (protein)
chain: MFLKSLREQINLLKRQGDLRIINRPVDSYLEAAAIIRRSTETKAPVPLMTNIKGYPGCSIVGGLAALSSNPEYPLSRVAMSLGLSTTASAQSIVQYLIDGLKKTPYLPVEIDSNSAPCKQNILRGEDASLAHFPIPQVHQHDGNRYVNTWGVFIVESPDGQWCNWSIQRVQYLNDRQMIALVFPSQHISDIWEEWVKIGKPMPYALVQGCEPIVPYIAGLPLLERNVNEAEYIGALYGKGIEVVKCETHDLRVPASSEVVIEGYFAITREGVEGPFGEFAGYTDNEPSLQPILSITAISWQDDPIWPVVAEGKPVDEYHTCTGIGDAAAIQNVLLTANLPVSFVWVPLYSACHLMIVSINRHWRQTHPDLTSEQLTKKVGDVIHQTRMSIKLPKIVVLDDDVDPADTESLLWALATRIHPERCRYFYESNIFPWLNCYSEEERHNRKGKRVIIDALLPENHGGISSFDDAYPDDIKQRVLMHWETDFSHD
B2: I283T-P284D-N287P-S322T-N388M-C430N-L432F-L434W-S436T-A463G-Y469D (protein)
chain: B1 chain with C423K, N436T
B3: I283T-P284D-N285L-N287P-S322T-N388M-C430N-L432F-L434W-S436N-A463G-Y469D (protein)
chain: B1 chain with N285L, C423K
B4: I283T-P284D-N285A-N287P-S322T-N388M-C430N-L432F-L434W-S436N-A463G-Y469D (protein)
chain: B1 chain with N285A, C423K
B5: I283T-P284D-N285I-N287P-S322T-N388M-C430N-L432F-L434W-S436N-A463G-Y469D (protein)
chain: B1 chain with N285I, C423K
B6: I283F-P284D-N287P-S322T-N388M-C430N-L432F-L434W-S436N-A463G-Y469D (protein)
chain: B1 chain with T283F, C423K
B7: K391I-L432W-L434M (protein)
chain: MFLKSLREQINLLKRQGDLRIINRPVDSYLEAAAIIRRSTETKAPVPLMTNIKGYPGCSIVGGLAALSSNPEYPLSRVAMSLGLSTTASAQSIVQYLIDGLKKTPYLPVEIDSNSAPCKQNILRGEDASLAHFPIPQVHQHDGNRYVNTWGVFIVESPDGQWCNWSIQRVQYLNDRQMIALVFPSQHISDIWEEWVKIGKPMPYALVQGCEPIVPYIAGLPLLERNVNEAEYIGALYGKGIEVVKCETHDLRVPASSEVVIEGYFAITREGVEGPFGEFAGYIPNENSLQPILSITAISWQDDPIWPVVAEGKPVDEYHTCSGIGDAAAIQNVLLTANLPVSFVWVPLYSACHLMIVSINRHWRQTHPDLTSEQLTKKVGDVIHQTRNSIILPKIVVLDDDVDPADTESLLWALATRIHPERKRYFYESCIWPMLSCYSEEERHNRKGKRVIIDALLPENHGAISSFDYAYPDDIKQRVLMHWETDFSHD
B8: K394R-L432F-L434W (protein)
chain: B7 chain with I391K, K394R, W432F, M434W
B9: N388M-K394R-C430K-L432F-L434W-S436N (protein)
chain: B7 chain with N388M, I391K, K394R, C430K, W432F, M434W, S436N
B10: N388M-K394R-C430S-L432F-L434W-S436A (protein)
chain: B7 chain with N388M, I391K, K394R, C430S, W432F, M434W, S436A
B11: R387A-L432F-L434W-S436A (protein)
chain: B7 chain with R387A, I391K, W432F, M434W, S436A
B12: L432F-L434W-S436A (protein)
chain: B7 chain with I391K, W432F, M434W, S436A
B13: N388M-K394R-C430P-L432F-L434W-S436A (protein)
chain: B7 chain with N388M, I391K, K394R, C430P, W432F, M434W, S436A
B14: C430S-L432F-L434W-S436A (protein)
chain: B7 chain with I391K, C430S, W432F, M434W, S436A
B15: N388M-C430S-L432F-L434W-S436A (protein)
chain: B7 chain with N388M, I391K, C430S, W432F, M434W, S436A
B16: N388M-K394H-C430P-L432F-L434W-S436N (protein)
chain: B7 chain with N388M, I391K, K394H, C430P, W432F, M434W, S436N
B17: N388M-K394C-C430P-L432F-L434W-S436N (protein)
chain: B7 chain with N388M, I391K, K394C, C430P, W432F, M434W, S436N
B18: N388M-K394R-L432F-L434W-S436N (protein)
chain: B7 chain with N388M, I391K, K394R, W432F, M434W, S436N
B19: C430S-L432F-L434W (protein)
chain: B7 chain with I391K, C430S, W432F, M434W
B20: K394R-L432F-L434W-S436A (protein)
chain: B7 chain with I391K, K394R, W432F, M434W, S436A
B21: K394R-L432F-L434W-S436N (protein)
chain: B7 chain with I391K, K394R, W432F, M434W, S436N
B22: C430P-L432F-L434W-S436N (protein)
chain: B7 chain with I391K, C430P, W432F, M434W, S436N
B23: N388M-L432F-L434W (protein)
chain: B7 chain with N388M, I391K, W432F, M434W
B24: H141Y-N388M-K394R-C430P-L432F-L434W-S436N (protein)
chain: B7 chain with H141Y, N388M, I391K, K394R, C430P, W432F, M434W, S436N
B25: N388M-K394R-C430N-L432F-L434W-S436N (protein)
chain: B7 chain with N388M, I391K, K394R, C430N, W432F, M434W, S436N
B26: K394R-C430S-L432F-L434W-S436N (protein)
chain: B7 chain with I391K, K394R, C430S, W432F, M434W, S436N
B27: C430S-L432F-L434W-S436N (protein)
chain: B7 chain with I391K, C430S, W432F, M434W, S436N
B28: N388M-K394R-L432F-L434W-S436A (protein)
chain: B7 chain with N388M, I391K, K394R, W432F, M434W, S436A
B29: N388M-L432F-L434W-S436N (protein)
chain: B7 chain with N388M, I391K, W432F, M434W, S436N
B30: L432F-L434W-S436N (protein)
chain: B7 chain with I391K, W432F, M434W, S436N
B31: C430P-L432F-L434W-S436A (protein)
chain: B7 chain with I391K, C430P, W432F, M434W, S436A
B32: K394R-C430P-L432F-L434W-S436A (protein)
chain: B7 chain with I391K, K394R, C430P, W432F, M434W, S436A
B33: N388M-L432F-L434W-S436A (protein)
chain: B7 chain with N388M, I391K, W432F, M434W, S436A
B34: N388M-C430A-L432F-L434W-S436N (protein)
chain: B7 chain with N388M, I391K, C430A, W432F, M434W, S436N
B35: N388M-C430P-L432F-L434W-S436A (protein)
chain: B7 chain with N388M, I391K, C430P, W432F, M434W, S436A
B36: N388M-C430S-L432F-L434W-S436N (protein)
chain: B7 chain with N388M, I391K, C430S, W432F, M434W, S436N
B37: N388M-K394R-I395V-C430P-L432F-L434W-S436N (protein)
chain: B7 chain with N388M, I391K, K394R, I395V, C430P, W432F, M434W, S436N
B38: N388M-K394R-C430S-L432F-L434W-S436N (protein)
chain: B7 chain with N388M, I391K, K394R, C430S, W432F, M434W, S436N
B39: N388M-C430P-L432F-L434W-S436N (protein)
chain: B7 chain with N388M, I391K, C430P, W432F, M434W, S436N
B40: N388M-K394A-C430P-L432F-L434W-S436N (protein)
chain: B7 chain with N388M, I391K, K394A, C430P, W432F, M434W, S436N
B41: K394R-C430S-L432F-L434W-S436A (protein)
chain: B7 chain with I391K, K394R, C430S, W432F, M434W, S436A
B42: K394R-C430P-L432F-L434W-S436N (protein)
chain: B7 chain with I391K, K394R, C430P, W432F, M434W, S436N
B43: N388M-K394R-C430P-L432F-L434W-S436N (protein)
chain: B7 chain with N388M, I391K, K394R, C430P, W432F, M434W, S436N

Tested on: 3-methylcrotonic acid
Format: biochemical, Yersinia frederiksenii
Design: key: “+” representing a low increase in activity; “++++” representing a high increase in activity

| Molecule | Activity relative to WT |
| --- | --- |
| B1 | ++++ |
| B2 | ++++ |
| B3 | ++++ |
| B4 | ++++ |
| B5 | ++++ |
| B6 | ++++ |
| B7 | + |
| B8 | + |
| B9 | + |
| B10 | + |
| B11 | + |
| B12 | + |
| B13 | + |
| B14 | + |
| B15 | + |
| B16 | + |
| B17 | + |
| B18 | + |
| B19 | + |
| B20 | + |
| B21 | + |
| B22 | + |

| Molecule | Activity relative to WT |
| --- | --- |
| B23 | + |
| B24 | + |
| B25 | + |
| B26 | + |
| B27 | + |
| B28 | + |
| B29 | + |
| B30 | + |
| B31 | + |
| B32 | + |
| B33 | + |
| B34 | + |
| B35 | + |
| B36 | + |
| B37 | + |
| B38 | + |
| B39 | + |
| B40 | + |
| B41 | + |
| B42 | + |
| B43 | + |
